For 22 sequences, self-aminoacylation results are on record in the supplement of paper PMC9233669.

Fewer inactive variants are shown than the library holds.

For one data set, the system named is biotinyl-Met-oxazolone. The data set is described as follows: self-aminoacylation, catalytic enhancement (BMO) (fold over background); higher = more active; k-Seq, kA / k0A0; sequences stand for … in GGGAAUGGAUCCACAUCUACGAAUUC…UUCACUGCAGACUUGACGAAGCUG
The procedure, abridged:
(§1)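 Catalytic enhancement equals the median kA over the uncatalyzed rate, the latter read from the low-activity peak of a bimodal Gaussian fit. Values of kA came from fitting each sequence's fraction reacted to a pseudo-first-order model, with 1000 bootstraps. Reacted RNA was captured with streptavidin and quantified by triplicate qPCR and Illumina sequencing after 90 minutes at room temperature with 2–1250 μM biotinyl-aminoacyl-oxazolone and 0.43 μM mutagenized RNA pools bearing a 21-nt variable region.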

The subject of the next data set is biotinyl-Phe-oxazolone. The data set is described as follows: self-aminoacylation, catalytic enhancement (BFO) (fold over background); higher = more active; k-Seq, kA / k0A0; sequences stand for … in GGGAAUGGAUCCACAUCUACGAAUUC…UUCACUGCAGACUUGACGAAGCUG
The procedure, abridged: as §1

A further data set deals with biotinyl-Trp-oxazolone. The data set can be described thus: self-aminoacylation, catalytic enhancement (BWO) (fold over background); higher = more active; k-Seq, kA / k0A0; sequences stand for … in GGGAAUGGAUCCACAUCUACGAAUUC…UUCACUGCAGACUUGACGAAGCUG
The procedure, abridged: as §1

The test system of another data set is biotinyl-Ile-oxazolone. The data set is described as follows: self-aminoacylation, catalytic enhancement (BIO) (fold over background); higher = more active; k-Seq, kA / k0A0; sequences stand for … in GGGAAUGGAUCCACAUCUACGAAUUC…UUCACUGCAGACUUGACGAAGCUG
The procedure, abridged: as §1

For another data set, the system named is biotinyl-Val-oxazolone. The data set can be described thus: self-aminoacylation, catalytic enhancement (BVO) (fold over background); higher = more active; k-Seq, kA / k0A0; sequences stand for … in GGGAAUGGAUCCACAUCUACGAAUUC…UUCACUGCAGACUUGACGAAGCUG
The procedure, abridged:
as §1

A further data set has as its system biotinyl-Leu-oxazolone. The data set is described as follows: self-aminoacylation, catalytic enhancement (BLO) (fold over background); higher = more active; k-Seq, kA / k0A0; sequences stand for … in GGGAAUGGAUCCACAUCUACGAAUUC…UUCACUGCAGACUUGACGAAGCUG
The procedure, abridged: as §1

As for “AUGACCCUGGGCAUCGAGUGA [Fam2.1 aminoacylation ribozyme variant]”, the self-aminoacylation in the data set on biotinyl-Met-oxazolone was found to be 7.08; in the data set with biotinyl-Phe-oxazolone, 42.4; with biotinyl-Trp-oxazolone, 7.35; in the data set with biotinyl-Ile-oxazolone it was 3.97; with biotinyl-Val-oxazolone, 3.32; in the data set on biotinyl-Leu-oxazolone, 8.34.
As for “AUUCAACCAGGUCAUCGGGUG [Fam2.2 aminoacylation ribozyme variant]”, the self-aminoacylation worked out at 5.83 in the data set on biotinyl-Met-oxazolone; 58.9 in the data set on biotinyl-Phe-oxazolone; 6.24 in the data set with biotinyl-Trp-oxazolone; 4.64 in the data set with biotinyl-Ile-oxazolone; 4.22 in the data set with biotinyl-Val-oxazolone; 7.64 in the data set on biotinyl-Leu-oxazolone.
As to “AUUCAGCUAGGGCAUCGGGUG [Fam2.2 aminoacylation ribozyme variant]”, the self-aminoacylation was found to be 6.69 with biotinyl-Met-oxazolone; 64.3 in the data set on biotinyl-Phe-oxazolone; 6.75 in the data set on biotinyl-Trp-oxazolone; 4.72 in the data set with biotinyl-Ile-oxazolone; 4.65 with biotinyl-Val-oxazolone; 7.92 in the data set with biotinyl-Leu-oxazolone.
Regarding “AUUCACCUAGCUCAUCGGUUG [Fam2.2 aminoacylation ribozyme variant]”, the self-aminoacylation with biotinyl-Met-oxazolone is 0.921; with biotinyl-Phe-oxazolone it was 0.258; with biotinyl-Trp-oxazolone, 0.533; in the data set with biotinyl-Ile-oxazolone, 0.978; with biotinyl-Val-oxazolone, 0.845; with biotinyl-Leu-oxazolone it was 0.861.
With “ACUCACCUAGGACAUCGGGUG [Fam2.2 aminoacylation ribozyme variant]”, the self-aminoacylation was found to be 3.82 in the data set on biotinyl-Met-oxazolone; 20.1 in the data set on biotinyl-Phe-oxazolone; 4.88 with biotinyl-Trp-oxazolone; 3.36 in the data set on biotinyl-Ile-oxazolone; 4.87 in the data set on biotinyl-Val-oxazolone; 4.64 in the data set with biotinyl-Leu-oxazolone.
Turning to “CUACUUCAAACGACCGGUCUG [Fam1A.1 aminoacylation ribozyme variant]”, the self-aminoacylation in the data set on biotinyl-Met-oxazolone was 0.698; in the data set with biotinyl-Phe-oxazolone, 0.832; with biotinyl-Trp-oxazolone, 0.229; in the data set with biotinyl-Ile-oxazolone it was 0.601; with biotinyl-Val-oxazolone it was 0.74; in the data set on biotinyl-Leu-oxazolone, 0.621.
“AUUCACCUAGGACAUUGGGUG [Fam2.2 aminoacylation ribozyme variant]”: the self-aminoacylation came to 3.42 in the data set with biotinyl-Met-oxazolone; 25.8 in the data set on biotinyl-Phe-oxazolone; 2.79 in the data set on biotinyl-Trp-oxazolone; 2.24 in the data set on biotinyl-Ile-oxazolone; 2.28 with biotinyl-Val-oxazolone; 4 in the data set with biotinyl-Leu-oxazolone.
Regarding “UUUACGCUGGUCAUCGAGUGA [Fam2.1 aminoacylation ribozyme variant]”, the self-aminoacylation in the data set on biotinyl-Met-oxazolone is 4.46; in the data set on biotinyl-Phe-oxazolone it was 10.2; in the data set with biotinyl-Trp-oxazolone, 6.37; in the data set on biotinyl-Ile-oxazolone it was 3.56; in the data set with biotinyl-Val-oxazolone, 4.07; with biotinyl-Leu-oxazolone it was 4.78.
Take “AACUUUGUUAAUAGUCGCAAG [Fam3.1 aminoacylation ribozyme variant]”: the self-aminoacylation in the data set with biotinyl-Met-oxazolone stood at 2.26; in the data set with biotinyl-Phe-oxazolone, 3.96; in the data set with biotinyl-Trp-oxazolone it was 2.76; in the data set with biotinyl-Ile-oxazolone, 2.29; in the data set on biotinyl-Val-oxazolone it was 2.06; in the data set on biotinyl-Leu-oxazolone, 2.47.
For “AAUCACCUAGGUCAUCGAGUG [Fam2.2 aminoacylation ribozyme variant]”, the self-aminoacylation in the data set on biotinyl-Met-oxazolone stood at 3.92; in the data set with biotinyl-Phe-oxazolone, 7.56; with biotinyl-Trp-oxazolone, 3.26; with biotinyl-Ile-oxazolone it was 3.52; in the data set on biotinyl-Val-oxazolone, 2.86; with biotinyl-Leu-oxazolone, 4.65.
Take “CUGCUUCAAACAUUCGGUCUG [Fam1A.1 aminoacylation ribozyme variant]”: the self-aminoacylation stood at 1.12 with biotinyl-Met-oxazolone; 1.11 in the data set with biotinyl-Phe-oxazolone; 0.813 with biotinyl-Trp-oxazolone; 1.29 in the data set with biotinyl-Ile-oxazolone; 1.62 in the data set with biotinyl-Val-oxazolone; 1.25 in the data set on biotinyl-Leu-oxazolone.
As for “AUUACCUUGGUCAUCGAGUGG [Fam2.1 aminoacylation ribozyme variant]”, the self-aminoacylation in the data set with biotinyl-Met-oxazolone stood at 2.08; with biotinyl-Phe-oxazolone it was 1.64; in the data set with biotinyl-Trp-oxazolone it was 0.873; in the data set with biotinyl-Ile-oxazolone it was 1.67; in the data set on biotinyl-Val-oxazolone, 1.45; in the data set on biotinyl-Leu-oxazolone, 2.13.
Take “AAGAUUGCUAAGAGUCGCAAG [Fam3.1 aminoacylation ribozyme variant]”: the self-aminoacylation in the data set with biotinyl-Met-oxazolone was 1.41; with biotinyl-Phe-oxazolone, 1.73; in the data set with biotinyl-Trp-oxazolone, 2.56; with biotinyl-Ile-oxazolone, 1.41; in the data set with biotinyl-Val-oxazolone it was 1.29; in the data set on biotinyl-Leu-oxazolone it was 1.3.
With “AUUCCCAUAGGUCAUCGGGUG [Fam2.2 aminoacylation ribozyme variant]”, the self-aminoacylation in the data set with biotinyl-Met-oxazolone is 23.9; in the data set on biotinyl-Phe-oxazolone, 185; with biotinyl-Trp-oxazolone, 22; with biotinyl-Ile-oxazolone, 15.6; in the data set with biotinyl-Val-oxazolone it was 13.4; in the data set with biotinyl-Leu-oxazolone, 32.7.
For “UCACACUUCAAACAAUCGGUC [Fam1B.1 aminoacylation ribozyme variant]”, the self-aminoacylation in the data set with biotinyl-Met-oxazolone stood at 1.66; in the data set with biotinyl-Phe-oxazolone, 89.1; with biotinyl-Trp-oxazolone it was 42.8; in the data set on biotinyl-Ile-oxazolone, 1.34; in the data set on biotinyl-Val-oxazolone, 1.55; with biotinyl-Leu-oxazolone it was 2.25.
In the case of “AUUACCCUGGUUGUCGAGUGA [Fam2.1 aminoacylation ribozyme variant]”, the self-aminoacylation is 1.91 with biotinyl-Met-oxazolone; 1.97 with biotinyl-Phe-oxazolone; 3.23 in the data set with biotinyl-Trp-oxazolone; 1.38 in the data set with biotinyl-Ile-oxazolone; 1.33 with biotinyl-Val-oxazolone; 1.85 in the data set on biotinyl-Leu-oxazolone.
“CCACACUUCAAGCAUUCCGUC [Fam1B.1 aminoacylation ribozyme variant]”: the self-aminoacylation in the data set with biotinyl-Met-oxazolone came out at 2.55; with biotinyl-Trp-oxazolone, 3.14; in the data set with biotinyl-Ile-oxazolone, 3.19; with biotinyl-Val-oxazolone it was 3; with biotinyl-Leu-oxazolone, 2.51.
Take “AUUCACCCAGCUCAUCGGGUG [Fam2.2 aminoacylation ribozyme variant]”: the self-aminoacylation in the data set with biotinyl-Met-oxazolone is 2.49; in the data set with biotinyl-Phe-oxazolone, 6.9; in the data set on biotinyl-Ile-oxazolone, 2.73; in the data set on biotinyl-Val-oxazolone, 2.19; with biotinyl-Leu-oxazolone it was 2.43.
Regarding “CCCCACUUCGAGCAAUCGGUC [Fam1B.1 aminoacylation ribozyme variant]”, the self-aminoacylation in the data set on biotinyl-Phe-oxazolone is 5.48; in the data set on biotinyl-Trp-oxazolone, 4.05; in the data set with biotinyl-Ile-oxazolone it was 2.2; with biotinyl-Val-oxazolone, 2.51; in the data set on biotinyl-Leu-oxazolone, 2.16.
For the sequence “CUACGUCAAACAAUCGGCCUG [Fam1A.1 aminoacylation ribozyme variant]”, the self-aminoacylation with biotinyl-Met-oxazolone was 2.29; with biotinyl-Trp-oxazolone, 4.49; in the data set with biotinyl-Ile-oxazolone, 2.56; in the data set on biotinyl-Val-oxazolone, 2.84; with biotinyl-Leu-oxazolone it was 2.69.
The matching figures for “CUUCACCUAGGUCAUCGGGCG [Fam2.2 aminoacylation ribozyme variant]”: 3.57, 4.39, 2.36, 2.97 and 2.75.
For the sequence “CAACUUCAAACAAUCGGGCUG [Fam1A.1 aminoacylation ribozyme variant]”, the self-aminoacylation with biotinyl-Phe-oxazolone came out at 23.8; with biotinyl-Trp-oxazolone, 20.1; with biotinyl-Ile-oxazolone it was 2.18; in the data set on biotinyl-Val-oxazolone, 2.25; in the data set with biotinyl-Leu-oxazolone, 2.58.
